The values that follow come from patent US6632625 (MERCK, dated 2003).

The target of this assay is T1, recombinant human leptin (human, UniProt P41159 22-167, 125I label on the tracer form (125I-leptin, NEN); position not stated).
T1 construct: also called recombinant leptin; 125I-leptin
Nature of the assay: 125I-leptin binding on transfected COS cells.

T1 sequence (P41159 22-167 limits assumed): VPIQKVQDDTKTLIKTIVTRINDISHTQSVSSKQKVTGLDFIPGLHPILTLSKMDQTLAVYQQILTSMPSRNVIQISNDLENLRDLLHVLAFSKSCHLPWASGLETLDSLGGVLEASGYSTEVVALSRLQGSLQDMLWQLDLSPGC

B1: substitution mutant (420-496)TO(500-632) of the human OB-R (receptor)
chain: FNLSYPITPWRFKLSCMPPNSTYDYFLLPAGLSKNTSNSNGHYETAVEPKFNSSGTHFSNLSKTTFHCCFRSEQDRNCSLCADNIEGKTFVSTVNSLVFQQIDANWNIQCWLKGDLKLFICYVESLFKNLFRNYNYKVHLLYVLPEVLEDSPLVPQKGSFQMVHCNCSVHECCECLVPVPTAKLNDTLLMCLKITSGGVIFQSPLMSVQPINMVKPDPPLGLHMEITDDGNLKISWSSPPLVPFPLQYQVKYSENSTTVIREADKIVSATSLLVDSILPGSSYEVQVRGKRLDGPGIWSDWSTPRVFTTQDVIYFPPKILTSVGSNVSFHCIYKKENKIVPSKEIVWWMNLAEKIPQSQYDVVSDHVSKVTFFNLNETKPRGKFTYDAVYCCNEHECHFQPIFLLSGYTMWIRINHSLGSLDSPPTCVLPDSVVKPLPPSSVKAEITINIGLLKISWEKPVFPENNLQFQIRYGLSGKEVQWKMYEVYDAKSKSVSLPVPDLCAVYAVQVRCKRLDGLGYWSNWSNPAYTVECIFQPIFLLSGYTMWIRINHSLGSLDSPPTCVLPDSVVKPLPPSSVKAEITINIGLLKISWEKPVFPENNLQFQIRYGLSGKEVQWKMYEVYDAKSKSVSLPVPDLCAVYAVQVRCKRLDGLGYWSNWSNPAYTVVMDIKVPMRGPEFWRIINGDTMKKEKNVTLLWKPLMKNDSLCSVQRYVINHHTSCNGTWSEDVGNHTKFTFLWTEQAHTVTVLAINSIGASVANFNLTFSWPMSKVNIVQSLSAYPLNSSCVIVSWILSPSDYKLMYFIIEWKNLNEDGEIKWLRISSSVKKYYIHDHFIPIEKYQFSLYPIFMEGVGKPKIINSFTQDDIEKHQSDAGLYVIVPVIISSSILLLGTLLISHQRMKKLFWEDVPNPKNCSWAQGLNFQKPETFEHLFIKHTASVTCGPLLLEPETISEDISVDTSWKNKDEMMPTTVVSLLSTTDLEKGSVCISDQFNSVNFSEAEGTEVTYEAESQRQPFVKYATLISNSKPSETGEEQGLINSSVTKCFSSKNSPLKDSFSNSSWEIEAQAFFILSDQHPNIISPHLTFSEGLDELLKLEGNFPEENNDKKSIYYLGVTSIKKRESGVLLTDKSRVSCPFPAPCLFTDIRVLQDSCSHFVENNINLGTSSKKTFASYMPQFQTCSTQTHKIMENKMCDLTV
On to B1, for which the binding result is reported as “no binding (tested: 0.2 nM)”.
